Results published in patent publication US20100028415A1.

Legend:
Mab 4E10 = test: competition ELISA: gp140 (19.25-1230 nM) mixed with 10 µg/ml 4E10 MAb, added to wells with 1.35 µg cardiolipin
SS-A/Ro = test: Luminex AtheNA Multi-Lyte ANA Test, 0.15 µg mab per test
centromere B = centromere B (UniProt P07199); test: as above
histones = test: as above

Sequence of UniProt P07199 (P07199 2-599 limits assumed): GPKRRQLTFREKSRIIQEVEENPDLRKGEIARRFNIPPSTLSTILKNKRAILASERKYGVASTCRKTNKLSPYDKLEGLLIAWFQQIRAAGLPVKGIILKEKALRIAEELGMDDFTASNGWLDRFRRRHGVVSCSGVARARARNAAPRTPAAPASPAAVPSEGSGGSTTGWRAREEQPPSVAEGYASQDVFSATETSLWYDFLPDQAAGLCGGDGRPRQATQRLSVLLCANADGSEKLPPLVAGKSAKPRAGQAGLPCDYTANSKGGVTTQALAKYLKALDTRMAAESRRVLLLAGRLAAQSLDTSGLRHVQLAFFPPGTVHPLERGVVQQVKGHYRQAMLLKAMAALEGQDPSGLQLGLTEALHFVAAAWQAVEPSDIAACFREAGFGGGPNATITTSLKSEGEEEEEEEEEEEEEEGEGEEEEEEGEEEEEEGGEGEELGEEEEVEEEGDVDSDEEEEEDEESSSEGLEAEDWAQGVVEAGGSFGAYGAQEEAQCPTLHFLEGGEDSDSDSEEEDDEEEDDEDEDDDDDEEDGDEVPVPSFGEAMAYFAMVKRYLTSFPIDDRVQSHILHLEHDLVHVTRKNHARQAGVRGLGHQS

| Substance | IC50 (Mab 4E10) | Ro (SSA) antibody value (relative units based on a standard curve) (relative units) (SS-A/Ro) | centromere B antibody value (relative units based on a standard curve) (relative units) (centromere B) | histone antibody value (relative units based on a standard curve) (relative units) (histones) |
| --- | --- | --- | --- | --- |
| soluble HIV-1 Env gp140 oligomers (CON-S) | 145 nM |  |  |  |
| Mab 4E10 (antibody) |  | 221 |  |  |
| A32 (antibody) |  |  | 1130 |  |
| Mab 2F5 (antibody) |  | 290 | 1780 | 1010 |
| Mab IgG1b12 (antibody) |  |  | 479 | 185 |
